Measurements published in PMC3877065, “Ligand Recognition by the TPR Domain of the Import Factor Toc64 from Arabidopsis thaliana” (PLoS ONE, 2013).
Where no end group is shown, it is not given here.

T1: TPR domain of AtToc64 with a C-terminal hexa-histidine tag (AtToc64_TPR-H6) (Arabidopsis thaliana, UniProt Q9LVH5 474-589)
T1 construct: Toc64 (AtToc64) from Arabidopsis thaliana, TPR domain, residues 474-589 of the full-length protein (NP_188424, At3g17970); Cloned with NcoI/XhoI into pETM10; also called TPR domain of Toc64 from Arabidopsis thaliana; source: E. coli BL21(DE3), purified (Ni-NTA, size exclusion chromatography); not shown: His6, C-terminal, kept
T1 sequence (looked up): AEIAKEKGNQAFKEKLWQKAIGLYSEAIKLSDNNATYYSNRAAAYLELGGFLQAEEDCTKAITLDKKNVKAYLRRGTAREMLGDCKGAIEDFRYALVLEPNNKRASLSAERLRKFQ

T2: TPR domain of AtToc64 with a C-terminal hexa-histidine tag (AtToc64_TPR-H6) (Arabidopsis thaliana, UniProt Q9LVH5 474-589)
T2 chain: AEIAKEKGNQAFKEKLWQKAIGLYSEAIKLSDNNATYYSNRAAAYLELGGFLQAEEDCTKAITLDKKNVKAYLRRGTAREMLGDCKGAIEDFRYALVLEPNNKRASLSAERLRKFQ

B1: C-terminal pentapeptide of Hsp70, Hsp70_C5 (IEEVD) (peptide)
peptide: IEEVD
notes: C-terminal pentapeptide of Hsp70; also called C70_C5; Hsp70 pentapeptide; source: synthetic peptide (Biomatik, >85% purity)
B2: C-terminal pentapeptide of Hsp90, Hsp90_C5 (MEEVD) (peptide)
peptide: MEEVD
notes: C-terminal pentapeptide of Hsp90; also called C90_C5; Hsp90 pentapeptide; source: synthetic peptide (Biomatik, >85% purity)
B3: C-terminal octapeptide of Hsp90 (TSRMEEVD) (peptide)
peptide: TSRMEEVD
notes: C-terminal octapeptide of Hsp90; also called Hsp90 octapeptide; C90_C8; source: synthetic peptide (Biomatik, >85% purity)
B4: C-terminal octapeptide of Hsp70 (GPTIEEVD) (peptide)
peptide: GPTIEEVD
notes: C-terminal octapeptide of Hsp70; also called Hsp70 octapeptide; C70_C8; source: synthetic peptide (Biomatik, >85% purity)
B5: Hsp70 C-terminal octapeptide, Ile120 to Ala (GPTAEEVD) (peptide)
chain: GPTAEEVD
B6: Hsp90 C-terminal octapeptide, Glu122 to Ala (TSRMEAVD) (peptide)
chain: TSRMEAVD
B7: Hsp90 C-terminal octapeptide, Met120 to Ala (TSRAEEVD) (peptide)
chain: TSRAEEVD
B8: Hsp90 C-terminal octapeptide, Arg119 to Ala (TSAMEEVD) (peptide)
chain: TSAMEEVD
B9: Hsp90 C-terminal octapeptide, Asp124 to Ala (peptide)
chain: TSRMEEVA
B10: Hsp70 C-terminal octapeptide, Thr119 to Ala (GPAIEEVD) (peptide)
chain: GPAIEEVD
B11: Hsp90 C-terminal octapeptide, Ser118 to Ala (TARMEEVD) (peptide)
chain: TARMEEVD
B12: Hsp90 C-terminal octapeptide, Thr117 to Ala (peptide)
chain: ASRMEEVD
B13: Hsp70 C-terminal octapeptide, Pro118 to Ala (GATIEEVD) (peptide)
chain: GATIEEVD
B14: Hsp70 C-terminal octapeptide, Gly117 to Ala (peptide)
chain: APTIEEVD

These molecules were tested against TPR domain of AtToc64 with a C-terminal hexa-histidine tag (AtToc64_TPR-H6) (Arabidopsis thaliana) (UniProt Q9LVH5) (assay: ITC; peptide (6-14 mM) titrated into AtToc64_TPR-H6 (0.1-0.3 mM) in the cell, VP-ITC, 20°C, 25 mM Hepes, 100 mM KCl, pH 7.3; 1:1 model, stoichiometry fixed at N = 1 for the alanine scan). Details: not given.
“Hsp70 C-terminal octapeptide, alanine mutant APTIEEVD” was tested, and the Kd was 740 µM and the stoichiometry N was 1.
“Hsp70 C-terminal octapeptide, alanine mutant GATIEEVD” showed a Kd of 657 µM and a stoichiometry N of 1.
In the case of “Hsp70 C-terminal octapeptide, alanine mutant GPAIEEVD”, the Kd is reported as 769 µM and the stoichiometry N is reported as 1.
For “Hsp70 C-terminal octapeptide, alanine mutant GPTAEEVD”, the stoichiometry N was 1.
For “Hsp90 C-terminal octapeptide, alanine mutant ASRMEEVD”, the Kd was 854 µM and the stoichiometry N was 1.
For “Hsp90 C-terminal octapeptide, alanine mutant TARMEEVD”, the Kd was 344 µM and the stoichiometry N was 1.
For “Hsp90 C-terminal octapeptide, alanine mutant TSAMEEVD”, the Kd was 100 µM and the stoichiometry N was 1.
In the case of “Hsp90 C-terminal octapeptide, alanine mutant TSRAEEVD”, the Kd is reported as 1080 µM and the stoichiometry N is reported as 1.
“Hsp90 C-terminal octapeptide, alanine mutant TSRMEAVD” showed a stoichiometry N of 1.
“Hsp90 C-terminal octapeptide, alanine mutant TSRMEEVA” showed a stoichiometry N of 1.

The molecules below were run against T1, TPR domain of AtToc64 with a C-terminal … (assay: ITC; peptide (6-14 mM) titrated into 1.4 ml of protein (0.1-0.3 mM) in the cell; 20°C; 25 mM Hepes, 100 mM KCl, pH 7.3; 30 injections of 10 µL; 1:1 binding model with N, Kd and ΔH floating). Details: both partners purified.
In the case of B1, the “stoichiometry N” value is reported as 1.2.

Biological target: T1, TPR domain of AtToc64 with a C-terminal …
Experiment: as above
Details: both partners purified
Remark: another data set of the same source
B1 was tested, and the dH was -1.63 kcal/mol and the “stoichiometry N” value was 0.93.
B2 was tested, and the dH was -2.68 kcal/mol and the “stoichiometry N” value was 1.04.
With B3 the dH was -6.18 kcal/mol and the “stoichiometry N” value was 0.94.
B4 was tested, and the dH was -1 kcal/mol and the “stoichiometry N” value was 1.2.

What follows are molecules tested against T3, TPR domain of AtToc64 (AtToc64_TPR-H6) (Arabidopsis thaliana, UniProt Q9LVH5) (assay: biochemical). Details: not given.
T3 construct: The region encompassing the TPR domain of AtToc64 was composed of residues 474–589; made in house; host or cells: E. coli BL21(DE3)
Assay type: binding
Procedure: Peptides were dissolved in the superdex buffer at 6–14 mM concentration and 302 µL were titrated against 1.4 ml of protein at 0.1–0.3 mM in a VP-ITC Microcal Instrument (GE Healthcare). Titrations were carried out at 20°C using 30 injections of 10 µL each injected at interval of 200 seconds. Injections were continued beyond saturation levels to allow determination of the heats of ligand dilution. The non-linear least square curve-fitting algorithm (Microcal Origin) was used for data fitting. After subtraction of the heat of dilution, three floating variables: stoichiometry (N), binding constant (Kd) and change in enthalpy of interaction (ΔH) were obtained. For subsequent alanine scan experiments the stoichiometry was fixed at N = 1.
In the case of `CC[C@H](C)[C@H](N)C(=O)N[C@@H](CCC(=O)O)C(=O)N[C@@H](CCC(=O)O)C(=O)N[C@H](C(=O)N[C@@H](CC(=O)O)C(=O)O)C(C)C` [IEEVD], the Kd is reported as 568 µM.
Molecule `CSCC[C@H](N)C(=O)N[C@@H](CCC(=O)O)C(=O)N[C@@H](CCC(=O)O)C(=O)N[C@H](C(=O)N[C@@H](CC(=O)O)C(=O)O)C(C)C` [MEEVD] has a Kd of 800 µM.
GPTAEEVD [GPTAEEVD] gave a Kd of 4650 µM.
In the case of GPTIEEVD [GPTIEEVD], the Kd is reported as 230 µM.
With TSRMEAVD [TSRMEAVD] the Kd was 1910 µM.
In the case of TSRMEEVA [TSRMEEVA], the Kd is reported as 1400 µM.
TSRMEEVD [TSRMEEVD] showed a Kd of 218 µM.

Same assay, conditions: ITC alanine scanning, Table S1, stoichiometry fixed at N = 1, 20°C
“GPTIEAVD [Ala-substituted Hsp70 octapeptide]” was tested, and the Kd was “No binding”.
With “GPTIEEAD [Ala-substituted Hsp70 octapeptide]” the Kd was “No binding”.
In the case of “GPTIEEVA [Ala-substituted Hsp70 octapeptide]”, the Kd is reported as “No binding”.
“TSRMAEVD [Ala-substituted Hsp90 octapeptide]” was tested, and the Kd was “No binding*”.

Same assay, conditions: ITC, Figure 4, alanine scanning of octapeptides; stoichiometry fixed at N = 1 for alanine scan; 20°C
For “TSRMAEVD [Ala-substituted Hsp90 octapeptide]”, the Kd was “No binding”.
With “TSRMEEAD [Ala-substituted Hsp90 octapeptide]” the Kd was “No binding”.

Biological target: T2, TPR domain of AtToc64 with a C-terminal …
Experiment: ITC
Details: not given
B5 gave a Kd of 4600 µM.
In the case of B6, the Kd is reported as 1900 µM.
Molecule B7 has a Kd of 1080 µM.
Molecule B8 has a Kd of 100 µM.
In the case of B9, the Kd is reported as 1400 µM.
With B10 the Kd was 769 µM.
Molecule B11 has a Kd of 344 µM.
Work on B12 yielded a Kd of 854 µM.
For B13, the Kd was 657 µM.
B14 showed a Kd of 740 µM.
